Data on two molecules can be found in patent US20160200782A1 (MOERAE MATRIX, published 2016).

Holding throughout (experiment): cell-based or functional assay
The target in test [1] is T1, BrSK1(h) (human, UniProt Q8TDC3 1-778, limits assumed).
T1 sequence (looked up): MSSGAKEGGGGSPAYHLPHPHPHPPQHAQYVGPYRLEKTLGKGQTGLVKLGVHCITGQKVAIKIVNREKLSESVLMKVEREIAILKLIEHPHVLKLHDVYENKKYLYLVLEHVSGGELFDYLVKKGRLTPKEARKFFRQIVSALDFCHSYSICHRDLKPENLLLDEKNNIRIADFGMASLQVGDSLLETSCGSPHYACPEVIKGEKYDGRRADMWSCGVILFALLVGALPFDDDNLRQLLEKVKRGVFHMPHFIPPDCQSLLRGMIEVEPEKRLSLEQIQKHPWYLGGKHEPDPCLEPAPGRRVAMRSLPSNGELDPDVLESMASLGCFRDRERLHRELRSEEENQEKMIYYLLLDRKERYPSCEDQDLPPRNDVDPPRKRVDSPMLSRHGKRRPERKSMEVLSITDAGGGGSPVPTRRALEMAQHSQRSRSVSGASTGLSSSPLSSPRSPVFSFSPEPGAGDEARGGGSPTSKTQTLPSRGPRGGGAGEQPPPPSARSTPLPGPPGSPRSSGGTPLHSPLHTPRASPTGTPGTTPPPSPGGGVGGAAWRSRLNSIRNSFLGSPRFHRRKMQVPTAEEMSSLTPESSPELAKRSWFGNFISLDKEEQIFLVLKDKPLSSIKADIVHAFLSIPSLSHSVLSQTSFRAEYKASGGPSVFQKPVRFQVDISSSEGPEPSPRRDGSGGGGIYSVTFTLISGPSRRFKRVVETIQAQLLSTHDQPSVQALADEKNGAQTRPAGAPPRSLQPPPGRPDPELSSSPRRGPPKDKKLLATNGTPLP

For test [2], the target named is CDK2/cyclinA(h) (human, UniProt P24941 1-298; P20248 1-432).
The target in test [3] is Ros(h) (human, UniProt P08922 1883-2347, limits assumed).
Chain of Ros(h) (P08922 1883-2347 limits assumed): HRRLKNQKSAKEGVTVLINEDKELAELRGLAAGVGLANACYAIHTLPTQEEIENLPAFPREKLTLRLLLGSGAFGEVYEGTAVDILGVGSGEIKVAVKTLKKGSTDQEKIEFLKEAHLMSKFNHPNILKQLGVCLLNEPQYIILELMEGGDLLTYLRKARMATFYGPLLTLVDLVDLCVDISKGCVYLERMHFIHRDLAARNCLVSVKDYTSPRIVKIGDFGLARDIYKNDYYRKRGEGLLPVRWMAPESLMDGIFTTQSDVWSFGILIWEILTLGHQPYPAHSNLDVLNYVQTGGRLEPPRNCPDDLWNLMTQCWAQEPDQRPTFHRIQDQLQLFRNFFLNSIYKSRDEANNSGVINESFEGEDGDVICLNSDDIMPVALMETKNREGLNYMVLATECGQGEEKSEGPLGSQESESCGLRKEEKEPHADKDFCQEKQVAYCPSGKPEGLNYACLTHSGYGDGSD
In test [4] the target is T2, ALK4(h) (human, UniProt P36896 150-505, limits assumed).
T2 sequence (looked up): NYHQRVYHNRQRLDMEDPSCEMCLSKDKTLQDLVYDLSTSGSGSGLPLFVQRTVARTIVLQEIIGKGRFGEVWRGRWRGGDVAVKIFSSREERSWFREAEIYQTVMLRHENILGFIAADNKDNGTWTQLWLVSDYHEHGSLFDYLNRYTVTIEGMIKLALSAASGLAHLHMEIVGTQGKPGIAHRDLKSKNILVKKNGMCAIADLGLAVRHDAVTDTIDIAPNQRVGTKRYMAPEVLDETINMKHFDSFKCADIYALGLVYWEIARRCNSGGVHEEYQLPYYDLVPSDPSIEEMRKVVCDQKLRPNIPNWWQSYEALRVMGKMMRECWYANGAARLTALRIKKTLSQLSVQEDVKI

The target in test [5] is PKBβ(h) (human, UniProt P31751 1-481, limits assumed).
Chain of PKBβ(h) (P31751 whole entry): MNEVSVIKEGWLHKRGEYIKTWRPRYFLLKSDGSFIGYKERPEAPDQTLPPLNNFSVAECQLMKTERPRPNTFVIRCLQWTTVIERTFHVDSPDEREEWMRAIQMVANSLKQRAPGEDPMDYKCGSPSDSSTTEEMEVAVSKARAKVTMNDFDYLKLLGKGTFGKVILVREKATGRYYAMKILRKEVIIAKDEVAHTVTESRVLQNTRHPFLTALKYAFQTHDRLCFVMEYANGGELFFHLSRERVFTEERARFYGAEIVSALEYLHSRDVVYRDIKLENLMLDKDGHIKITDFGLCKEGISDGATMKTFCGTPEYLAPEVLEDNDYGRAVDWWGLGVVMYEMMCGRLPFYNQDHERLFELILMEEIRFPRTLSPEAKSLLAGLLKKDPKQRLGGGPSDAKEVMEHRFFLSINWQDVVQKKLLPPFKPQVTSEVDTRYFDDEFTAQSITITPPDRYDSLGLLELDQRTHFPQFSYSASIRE
Test [6] has as its target MINK(h) (human, UniProt Q8N4C8 1-320, limits assumed).
The target of test [7] is T3, Fms(Y969C)(h) (human, UniProt P07333 538-972, limits assumed).
T3 sequence (looked up): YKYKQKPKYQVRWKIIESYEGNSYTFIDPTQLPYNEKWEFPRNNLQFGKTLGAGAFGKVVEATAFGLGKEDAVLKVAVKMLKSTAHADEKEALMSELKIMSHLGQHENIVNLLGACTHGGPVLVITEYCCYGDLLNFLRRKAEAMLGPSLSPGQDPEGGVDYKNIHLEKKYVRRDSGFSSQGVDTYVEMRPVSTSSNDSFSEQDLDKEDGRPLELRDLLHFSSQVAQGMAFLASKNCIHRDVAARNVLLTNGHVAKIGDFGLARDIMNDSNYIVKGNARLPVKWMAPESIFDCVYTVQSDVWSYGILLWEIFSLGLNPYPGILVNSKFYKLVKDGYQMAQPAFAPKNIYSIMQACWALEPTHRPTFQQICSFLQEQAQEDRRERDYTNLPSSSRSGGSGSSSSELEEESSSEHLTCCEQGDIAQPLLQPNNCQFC

In test [8] the target is TrkA(h) (human, UniProt P04629 441-796, limits assumed).
Chain of TrkA(h) (P04629 441-796 limits assumed): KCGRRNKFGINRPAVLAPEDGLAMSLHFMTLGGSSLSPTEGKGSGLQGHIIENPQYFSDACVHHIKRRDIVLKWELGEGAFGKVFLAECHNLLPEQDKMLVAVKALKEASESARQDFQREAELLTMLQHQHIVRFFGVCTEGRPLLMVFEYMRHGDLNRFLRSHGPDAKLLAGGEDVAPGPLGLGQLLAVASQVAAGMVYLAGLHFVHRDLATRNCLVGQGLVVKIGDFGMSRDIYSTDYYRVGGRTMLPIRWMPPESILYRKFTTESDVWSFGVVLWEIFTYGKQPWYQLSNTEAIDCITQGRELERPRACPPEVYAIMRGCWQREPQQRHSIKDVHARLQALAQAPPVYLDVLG
Test [9] has as its target T4, PKD2(h) (human, UniProt Q9BZL6 1-878, limits assumed).
T4 sequence (looked up): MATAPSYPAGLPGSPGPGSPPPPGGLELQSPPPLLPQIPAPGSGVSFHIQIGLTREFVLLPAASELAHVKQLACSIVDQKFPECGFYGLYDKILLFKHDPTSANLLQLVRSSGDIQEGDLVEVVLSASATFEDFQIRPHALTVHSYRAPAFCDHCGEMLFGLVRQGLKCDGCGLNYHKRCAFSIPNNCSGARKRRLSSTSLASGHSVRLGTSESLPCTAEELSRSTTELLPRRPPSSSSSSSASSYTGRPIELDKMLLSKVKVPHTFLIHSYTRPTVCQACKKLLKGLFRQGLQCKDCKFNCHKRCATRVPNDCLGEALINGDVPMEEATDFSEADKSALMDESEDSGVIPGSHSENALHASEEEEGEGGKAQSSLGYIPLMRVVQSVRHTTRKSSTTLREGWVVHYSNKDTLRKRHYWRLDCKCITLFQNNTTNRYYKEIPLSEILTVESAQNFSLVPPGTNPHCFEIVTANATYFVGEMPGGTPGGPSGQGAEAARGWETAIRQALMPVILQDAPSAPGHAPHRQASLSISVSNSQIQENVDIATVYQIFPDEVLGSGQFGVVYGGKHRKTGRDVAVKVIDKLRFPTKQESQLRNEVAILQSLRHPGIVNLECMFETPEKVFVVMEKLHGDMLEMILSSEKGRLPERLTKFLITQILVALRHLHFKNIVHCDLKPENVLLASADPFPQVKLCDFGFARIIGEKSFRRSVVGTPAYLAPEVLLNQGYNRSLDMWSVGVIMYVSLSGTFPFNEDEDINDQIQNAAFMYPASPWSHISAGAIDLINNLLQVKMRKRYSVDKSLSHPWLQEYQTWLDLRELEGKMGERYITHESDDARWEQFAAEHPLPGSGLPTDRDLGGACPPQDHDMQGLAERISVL

In test [10] the target is Ab1(T315I)(h) (human, UniProt P00519 27-1130, limits assumed).
Chain of Ab1(T315I)(h) (P00519 27-1130 T315I limits assumed): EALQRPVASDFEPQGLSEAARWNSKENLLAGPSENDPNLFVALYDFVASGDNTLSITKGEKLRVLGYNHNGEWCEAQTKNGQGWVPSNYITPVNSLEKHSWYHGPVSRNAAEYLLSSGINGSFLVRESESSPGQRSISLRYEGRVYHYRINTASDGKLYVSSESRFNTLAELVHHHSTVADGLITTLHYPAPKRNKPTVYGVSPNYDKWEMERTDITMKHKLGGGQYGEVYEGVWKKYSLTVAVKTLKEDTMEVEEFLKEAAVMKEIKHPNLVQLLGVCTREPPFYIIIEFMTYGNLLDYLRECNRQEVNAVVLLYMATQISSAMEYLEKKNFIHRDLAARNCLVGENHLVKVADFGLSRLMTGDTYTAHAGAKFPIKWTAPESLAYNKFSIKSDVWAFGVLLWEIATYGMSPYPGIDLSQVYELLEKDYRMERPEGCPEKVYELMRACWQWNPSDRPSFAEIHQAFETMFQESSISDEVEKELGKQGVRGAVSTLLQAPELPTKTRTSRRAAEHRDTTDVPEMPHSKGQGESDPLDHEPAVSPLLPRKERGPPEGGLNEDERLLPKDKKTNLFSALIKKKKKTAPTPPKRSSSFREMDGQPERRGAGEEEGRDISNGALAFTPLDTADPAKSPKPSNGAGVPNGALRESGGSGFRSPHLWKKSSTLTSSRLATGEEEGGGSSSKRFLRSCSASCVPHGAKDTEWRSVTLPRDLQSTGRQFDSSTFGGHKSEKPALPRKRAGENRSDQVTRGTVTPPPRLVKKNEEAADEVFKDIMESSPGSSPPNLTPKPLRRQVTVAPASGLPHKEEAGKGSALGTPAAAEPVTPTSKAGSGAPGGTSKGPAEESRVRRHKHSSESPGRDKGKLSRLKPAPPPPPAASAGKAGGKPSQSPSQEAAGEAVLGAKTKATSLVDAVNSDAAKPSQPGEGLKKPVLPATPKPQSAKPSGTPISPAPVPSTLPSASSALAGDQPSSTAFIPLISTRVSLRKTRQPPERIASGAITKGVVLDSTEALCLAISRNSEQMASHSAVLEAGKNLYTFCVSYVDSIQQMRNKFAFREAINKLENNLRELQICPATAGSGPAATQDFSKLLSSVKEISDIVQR
Note: test concentration or dose not given here.

Chain of MINK(h) (Q8N4C8 1-320 limits assumed): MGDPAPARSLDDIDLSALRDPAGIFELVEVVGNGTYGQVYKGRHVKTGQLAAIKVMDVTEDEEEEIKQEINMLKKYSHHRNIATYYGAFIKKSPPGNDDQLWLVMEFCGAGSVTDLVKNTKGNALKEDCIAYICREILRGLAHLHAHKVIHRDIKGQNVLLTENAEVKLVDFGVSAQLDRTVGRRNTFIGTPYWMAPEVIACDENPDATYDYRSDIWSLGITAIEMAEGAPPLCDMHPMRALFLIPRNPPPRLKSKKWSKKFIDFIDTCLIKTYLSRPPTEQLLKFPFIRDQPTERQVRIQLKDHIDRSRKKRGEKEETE

B1: MMI-0400 (peptide)
peptide: KAFAKLAARLYRKALARQLGVAA
B1: the “% activity” value is 76% in test [1]; 92% in test [2]; 99% in test [3]; 130% in test [4]; 98% in [5]; 52% in [6]. For the same molecule, the “% activity” value stood at 91% in test [7], 17% in test [8], 25% in [9] and 105% in test [10].

B2: MMI-0300 (peptide)
peptide: FAKLAARLYRKALARQLGVAA
With B2, the “% activity” value in test [1] was determined as 67%; in test [2], 86%; in test [3], 95%; in test [4], 140%; in test [5], 84%; in test [6], 48%. The “% activity” value in test [7] came to 72%; in [8] it was 25%; in [9] it was 33%; in [10] it was 97%.
